# Laboratory results as given in US20250352667A1.
# Residue numbers refer to the chain shown, from its start. Names and notes keep the numbering of the source.
# B1: NRF2 isoform 1 (wild-type full-length), FLAG-tagged (protein)
# chain: MMDLELPPPGLPSQQDMDLIDILWRQDIDLGVSREVFDFSQRRKEYELEKQKKLEKERQEQLQKEQEKAFFAQLQLDEETGEFLPIQPAQHIQSETSGSANYSQVAHIPKSDALYFDDCMQLLAQTFPFVDDNEVSSATFQSLVPDIPGHIESPVFIATNQAQSPETSVAQVAPVDLDGMQQDIEQVWEELLSIPELQCLNIENDKLVETTMVPSPEAKLTEVDNYHFYSSIPSMEKEVGNCSPHFLNAFEDSFSSILSTEDPNQLTVNSLNSDATVNTDFGDEFYSAFIAEPSISNSMPSPATLSHSLSELLNGPIDVSDLSLCKAFNQNHPESTAEFNDSDSGISLNTSPSVASPEHSVESSSYGDTLLGLSDSEVEELDSAPGSVKQNGPKTPVHSSGDMVQPLSPSQGQSTHVHDAQCENTPEKELPVSPGHRKTPFTKDKHSSRLEAHLTRDELRAKALHIPFPVEKIINLPVVDFNEMMSKEQFNEAQLALIRDIRRRGKNKVAAQNCRKRKLENIVELEQDLDHLKDEKEKLLKEKGENDKSLHLLKKQLSTLYLEVFSMLRDEDGKPYSPSEYSLQQTRDGNVFLVPKSKKPDVKKN
# B2: NRF2 isoform 1 (I28V full-length), FLAG-tagged (protein)
# chain: B1 chain with I28V
# B3: NRF2 isoform 1 (Q75R full-length), FLAG-tagged (protein)
# chain: B1 chain with Q75R
# B4: NRF2 isoform 1 (I86V full-length), FLAG-tagged (protein)
# chain: B1 chain with I86V
# Assays:
# [1] = target: KEAP1 (wild-type full-length), His-tagged (human) (UniProt Q14145); assay: AlphaScreen; 2.4 nM FLAG-NRF2, 150 nM His-KEAP1; Rep 2; control for I28V
# [2] = target: KEAP1 (wild-type full-length), His-tagged (human) (UniProt Q14145); assay: AlphaScreen; 2.4 nM FLAG-NRF2, 150 nM His-KEAP1; Rep 1; control for I86V
# [3] = target: KEAP1 (wild-type full-length), His-tagged (human) (UniProt Q14145); assay: AlphaScreen; 2.4 nM FLAG-NRF2, 150 nM His-KEAP1; Rep 3; control for I86V
# [4] = target: KEAP1 (wild-type full-length), His-tagged (human) (UniProt Q14145); assay: AlphaScreen; 4.8 nM FLAG-NRF2, 150 nM His-KEAP1; Rep 1; control for I86V
# [5] = target: KEAP1 (wild-type full-length), His-tagged (human) (UniProt Q14145); assay: AlphaScreen; 76.8 nM FLAG-NRF2, 150 nM His-KEAP1; Rep 1; control for I86V
# [6] = target: KEAP1 (wild-type full-length), His-tagged (human) (UniProt Q14145); assay: AlphaScreen; 153.6 nM FLAG-NRF2, 150 nM His-KEAP1; Rep 3; control for I86V
# [7] = target: KEAP1 (wild-type full-length), His-tagged (human) (UniProt Q14145); assay: AlphaScreen; 1228.8 nM FLAG-NRF2, 150 nM His-KEAP1; Rep 2; control for I28V
# [8] = target: KEAP1 (wild-type full-length), His-tagged (human) (UniProt Q14145); assay: AlphaScreen; 9.6 nM FLAG-NRF2, 150 nM His-KEAP1; Repeat 2 (same value as in Table 26)
# [9] = target: KEAP1 (wild-type full-length), His-tagged (human) (UniProt Q14145); assay: AlphaScreen; NRF2 wt isoform 1 19.2 nM, KEAP1 150 nM; set as the 100 % reference for Q75R
# [10] = target: KEAP1 (wild-type full-length), His-tagged (human) (UniProt Q14145); assay: AlphaScreen; 9.6 nM FLAG-NRF2, 150 nM His-KEAP1; signal against NRF2 only; control for I28V
# [11] = target: KEAP1 (wild-type full-length), His-tagged (human) (UniProt Q14145); assay: AlphaScreen; FLAG-NRF2 wt isoform 1 19.2 nM, His-KEAP1 150 nM; Rep 1; positive control for Q75R
# [12] = target: KEAP1 (wild-type full-length), His-tagged (human) (UniProt Q14145); assay: AlphaScreen; FLAG-NRF2 wt isoform 1 38.4 nM, His-KEAP1 150 nM; Rep 2; positive control for Q75R
# [13] = target: KEAP1 (wild-type full-length), His-tagged (human) (UniProt Q14145); assay: AlphaScreen; NRF2 wt isoform 1 19.2 nM, KEAP1 150 nM; signal against NRF2-only control; control for I86V
# [14] = target: KEAP1 (wild-type full-length), His-tagged (human) (UniProt Q14145); assay: AlphaScreen; NRF2 wt isoform 1 19.2 nM, KEAP1 150 nM; signal against NRF2-only control; control for Q75R
# [15] = target: KEAP1 (wild-type full-length), His-tagged (human) (UniProt Q14145); assay: AlphaScreen; NRF2 wt isoform 1 614.4 nM, KEAP1 150 nM; signal against NRF2-only control; control for Q75R
# [16] = target: KEAP1 (wild-type full-length), His-tagged (human) (UniProt Q14145); assay: AlphaScreen; 614.4 nM FLAG-NRF2, 150 nM His-KEAP1; Rep 1
# [17] = target: KEAP1 (wild-type full-length), His-tagged (human) (UniProt Q14145); assay: AlphaScreen; 307.2 nM FLAG-NRF2, 150 nM His-KEAP1; signal against NRF2 only
# [18] = target: KEAP1 (wild-type full-length), His-tagged (human) (UniProt Q14145); assay: AlphaScreen; 19.2 nM FLAG-NRF2, 150 nM His-KEAP1; Repeat 2 (same value as in Table 27)
# [19] = target: KEAP1 (wild-type full-length), His-tagged (human) (UniProt Q14145); assay: AlphaScreen; mean over 9.6, 19.2 and 38.4 nM NRF2; 150 nM His-KEAP1; against wild-type NRF2 isoform 1 = 100%
# [20] = target: KEAP1 (wild-type full-length), His-tagged (human) (UniProt Q14145); assay: AlphaScreen; FLAG-NRF2 Q75R 38.4 nM, His-KEAP1 150 nM; Repeat 2
# [21] = target: KEAP1 (wild-type full-length), His-tagged (human) (UniProt Q14145); assay: AlphaScreen; NRF2 Q75R 9.6 nM, KEAP1 150 nM; relative to wild-type NRF2 isoform 1 (100 %)
# [22] = target: KEAP1 (wild-type full-length), His-tagged (human) (UniProt Q14145); assay: AlphaScreen; NRF2 Q75R 19.2 nM, KEAP1 150 nM; relative to wild-type NRF2 isoform 1 (100 %)
# [23] = target: KEAP1 (wild-type full-length), His-tagged (human) (UniProt Q14145); assay: AlphaScreen; NRF2 Q75R 38.4 nM, KEAP1 150 nM; relative to wild-type NRF2 isoform 1 (100 %)
# [24] = target: KEAP1 (wild-type full-length), His-tagged (human) (UniProt Q14145); assay: AlphaScreen; FLAG-NRF2 I86V 2.4 nM, His-KEAP1 150 nM; Rep 2
# [25] = target: KEAP1 (wild-type full-length), His-tagged (human) (UniProt Q14145); assay: AlphaScreen; FLAG-NRF2 I86V 76.8 nM, His-KEAP1 150 nM; Rep 1
# [26] = target: KEAP1 (wild-type full-length), His-tagged (human) (UniProt Q14145); assay: AlphaScreen; NRF2 I86V 76.8 nM, KEAP1 150 nM; signal against NRF2-only control
# [27] = target: KEAP1 (wild-type full-length), His-tagged (human) (UniProt Q14145); assay: AlphaScreen; NRF2 I86V 614.4 nM, KEAP1 150 nM; signal against NRF2-only control
# Sequence of KEAP1 (wild-type full-length), His-tagged (human) (Q14145 2-624 limits assumed): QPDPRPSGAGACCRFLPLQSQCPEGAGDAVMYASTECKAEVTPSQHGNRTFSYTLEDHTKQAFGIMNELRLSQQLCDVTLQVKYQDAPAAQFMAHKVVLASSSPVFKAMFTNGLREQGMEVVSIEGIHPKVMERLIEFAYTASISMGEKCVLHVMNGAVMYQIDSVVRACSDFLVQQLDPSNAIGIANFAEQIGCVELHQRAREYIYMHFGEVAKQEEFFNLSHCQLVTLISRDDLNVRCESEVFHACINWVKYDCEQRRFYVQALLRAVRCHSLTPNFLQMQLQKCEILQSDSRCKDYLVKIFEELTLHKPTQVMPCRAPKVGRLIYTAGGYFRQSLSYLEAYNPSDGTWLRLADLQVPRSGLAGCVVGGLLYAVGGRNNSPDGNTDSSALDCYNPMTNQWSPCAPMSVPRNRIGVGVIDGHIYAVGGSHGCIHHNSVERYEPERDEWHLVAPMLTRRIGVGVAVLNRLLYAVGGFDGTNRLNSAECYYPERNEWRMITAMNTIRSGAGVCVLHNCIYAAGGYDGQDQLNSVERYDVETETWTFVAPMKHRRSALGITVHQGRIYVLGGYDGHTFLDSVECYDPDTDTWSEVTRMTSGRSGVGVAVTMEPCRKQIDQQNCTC
binder,measurement,setting,value
B1,A-counts,[1],628 A-counts
same,A-counts,[2],860 A-counts
same,A-counts,[3],1100 A-counts
same,A-counts,[4],1810 A-counts
same,A-counts,[5],3020 A-counts
same,A-counts,[6],2990 A-counts
same,A-counts,[7],1520 A-counts
same,A-counts,[8],1640 A-counts
same,Binding Percentage,[9],100%
same,S/N,[10],4.1
same,A-counts (NRF2 plus KEAP1),[11],1360 A-counts
same,A-counts (NRF2 plus KEAP1),[12],1450 A-counts
same,S/N,[13],4.1
same,S/N,[14],3.4
same,S/N,[15],1
B2,A-counts,[16],1220 A-counts
same,S/N,[17],1.2
same,A-counts,[18],1700 A-counts
same,Average Binding,[19],69.8%
B3,A-counts (NRF2 plus KEAP1),[20],1280 A-counts
same,Binding Percentage,[21],72.4%
same,Binding Percentage,[22],63.7%
same,Binding Percentage,[23],73.4%
B4,A-counts (NRF2 plus KEAP1),[24],1610 A-counts
same,A-counts (NRF2 plus KEAP1),[25],2810 A-counts
same,S/N,[26],2.3
same,S/N,[27],1.1
